Positions count from the first letter of the chain named.
B1: CA9hu-2 chimeric HC0LC0 (antibody, V domains shown)
VH: EVQLVETGGGLVQPKGSLKLSCAASGFTFNTNAMHWVRQAPGKGLEWVARIRSKSNNYTTYYADSVKDRFTISRDDSQSMLYLQMNNLKTEDTAMYYCVCGSWFAYWGQGTLVTVSA
VL: DIVMTQSPSSLAMSLGQKVTMSCKSSQSLLNSSNQKNYLAWFQQKPGQSPKLLVYFTSTRQSGVPDRFIGSGSGTDFTLTISSVQAEDLADYFCQQHYSIPLTFGAGTKLELK
notes: also called HC0LC0 (CA9hu-2)
B2: CA9hu-2_HC1LC5 (antibody, V domains shown)
VH: EVQLVESGGGLVQPGGSLKLSCAASGFTFNTNAMHWVRQASGKGLEWVGRIRSKSNNYTTYYADSVKDRFTISRDDSKNTAYLQMNSLKTEDTAVYYCVCGSWFAYWGQGTLVTVSS
VL: DIVMTQSPDSLAVSLGERATINCKSSQSLLNSSNQKNYLAWYQQKPGQPPKLLIYFTSTRQSGVPDRFSGSGSGTDFTLTISSLQAEDVAVYYCQQHYSIPLTFGQGTKLEIK
notes: Humanized from murine IV/18; also called HC1LC5 (CA9hu-2)
B3: CA9hu-2_HC1LC3 (antibody, V domains shown)
VH: B2 VH
VL: B2 VL with V3Q, Y93F, L110V
notes: Humanized from murine IV/18; also called HC1LC3 (CA9hu-2)
B4: CA9hu-2_HC2LC5 (antibody, V domains shown)
VH: B2 VH with N79S
VL: B2 VL
notes: Humanized from murine IV/18; also called HC2LC5 (CA9hu-2)
B5: CA9hu-2_HC1LC1 (antibody, V domains shown)
VH: B2 VH
VL: B2 VL with I2V, A19V, P49S
notes: Humanized from murine IV/18; also called HC1LC1 (CA9hu-2)
B6: CA9hu-2_HC1LC2 (antibody, V domains shown)
VH: B2 VH
VL: B2 VL with Y42F, K51N, L53V, S82N, Y93F, K109Q, L110V
notes: Humanized from murine IV/18; also called HC1LC2 (CA9hu-2)
B7: CA9hu-2_HC2LC2 (antibody, V domains shown)
VH: B2 VH with N79S
VL: B2 VL with Y42F, K51N, L53V, S82N, Y93F, K109Q, L110V
notes: Humanized from murine IV/18; also called HC2LC2 (CA9hu-2)
B8: CA9hu-2_HC2LC1 (antibody, V domains shown)
VH: B2 VH with N79S
VL: B2 VL with I2V, A19V, P49S
notes: Humanized from murine IV/18; also called HC2LC1 (CA9hu-2)
B9: CA9hu-2_HC4LC1 (antibody, V domains shown)
VH: B2 VH with L11V, G16R, K19R, S41P, G49A, D76N, A81L, K89R, T90A
VL: B2 VL with I2V, A19V, P49S
notes: Humanized from murine IV/18; also called HC4LC1 (CA9hu-2)
B10: CA9hu-2_HC2LC4 (antibody, V domains shown)
VH: B2 VH with N79S
VL: B2 VL with Y42F, L52V, S69T
notes: Humanized from murine IV/18; also called HC2LC4 (CA9hu-2)
B11: CA9hu-2_HC2LC3 (antibody, V domains shown)
VH: B2 VH with N79S
VL: B2 VL with V3Q, Y93F, L110V
notes: Humanized from murine IV/18; also called HC2LC3 (CA9hu-2)
B12: CA9hu-2_HC1LC4 (antibody, V domains shown)
VH: B2 VH
VL: B2 VL with Y42F, L52V, S69T
notes: Humanized from murine IV/18; also called HC1LC4 (CA9hu-2)
B13: CA9hu-2_HC3LC5 (antibody, V domains shown)
VH: QVQLVESGGGVVQPGGSLRLSCAASGFTFNTNAMHWVRQAPGRGLEWVARIRSKSNNYTTYYADSVKDRFTISRDNSKNTLYLQVNSLRAEDTAVYYCVCGSWFAYWGQGTLVTVSS
VL: B2 VL
notes: Humanized from murine IV/18; also called HC3LC5 (CA9hu-2)

target: recombinant human CA IX (human, UniProt Q16790 38-414); assay: SPR (Biacore T200), antibody captured on CM5 chip, rh CA IX in flow, 25 C
Procedure: In order to determinate the antigen-binding affinity of humanized variants, measurements of affinity constant (KD) for antibodies binding to CA IX were performed by SPR using a Biacore 2000 (T200 in case of CA9hu-2) instrument (GE Healthcare, Piscataway, NJ USA). Each humanized antibody variant was captured on the CM5 sensor chip and recombinant human CA IX (rh CA IX; 42 kDa; R&D Systems, Inc., Minneapolis MN, USA) protein as an antigen was added to the buffer flowing over the chip. The setting details of quantitative interaction analysis between humanized antibodies and rh CA IX were as follows: flow rate 30 μl/min; analysis temperature 25° C.; analysis buffer (10mM HEPES pH 7.4, 150 mM NaCl, […], 0.05% Tween 20). Results from SPR analysis are expressed as the equilibrium dissociation constant (KD) (Table 7).

Binder | Kd
B1 | 13.1 nM
B2 | 71.3 nM
B3 | 70.5 nM
B4 | 60.5 nM
B5 | 44 nM
B6 | 56.1 nM
B7 | 87.7 nM
B8 | 53.9 nM
B9 | 39.6 nM
B10 | 60.1 nM
B11 | 98.3 nM
B12 | 74.9 nM
B13 | 54.3 nM

target: CA IX expressed by cells (C-33a_CA IX transfectants; hypoxic BT-20, JIMT-1, 8-MG-BA and 42-MG-BA cells) (human, UniProt Q16790 38-459); assay: cell-based or functional assay

Binder | ADCC reporter luminescence, C-33a_CA IX against C-33a_neo cells
B2 | 2 times
B3 | 2 times
B4 | 2 times
B5 | 2 times
B6 | 2 times
B7 | 2 times
B8 | 2 times
B9 | 2 times
B10 | 2 times
B11 | 2 times
B12 | 2 times
B13 | 2 times
